Several values for one entry are separate records, joined by “and”; a condition that tells them apart may be missing. Equal values may be shown once. Read-outs that look alike come from different tables or passages of the source. One block for each substance: values may come before it.
Columns and labels:
[1] = molecular target: CAT-2200 lambda light chain T131K_V133S; test: LCCA, SPR
[2] = molecular target: CAT-2200 lambda light chain T131K_V133S; test: LCCA, SPR; remark: listed apart in the source
[3] = molecular target: CAT-2200 lambda light chain E124Q_T131R; test: LCCA, SPR
[4] = molecular target: CAT-2200 lambda light chain E124Q_T131K; test: LCCA, SPR
[5] = molecular target: CAT-2200 lambda light chain E124Q_T131R; test: LCCA, SPR; remark: listed apart in the source
[6] = molecular target: CAT-2200 lambda light chain E124Q_T131K; test: LCCA, SPR; remark: listed apart in the source
[7] = molecular target: CAT-2200 lambda light chain E124Q_T131R; test: LCCA, SPR; remark: listed apart in the source
[8] = molecular target: CAT-2200 lambda light chain V133D_Y178T; test: LCCA, SPR
[9] = molecular target: CAT-2200 lambda light chain V133D_Y178T; test: LCCA, SPR; remark: listed apart in the source
[10] = molecular target: CAT-2200 lambda light chain T131S_V133D_Y178T; test: LCCA, SPR
[11] = molecular target: CAT-2200 lambda light chain V133D_Y178T; test: LCCA, SPR; remark: listed apart in the source
[12] = molecular target: CR8071 lambda light chain L1 of design 2830 (E124K_Y178R); test: SMCA: H1, L1, H2, L2 co-expressed in CHO-3E7
[13] = molecular target: CR8071 lambda light chain L1 (S180E), designs 2816 and 2827; test: SMCA, System C, LC-MS
[14] = molecular target: CR8071 lambda light chain L1 (S180E), designs 2816 and 2827; test: SMCA, System C
[15] = molecular target: CR8071 lambda light chain L1, design 3878 (K129T_S180E); test: SMCA: H1,L1,H2,L2 co-expressed, protein A, LC-MS
[16] = molecular target: His-tagged Influenza B Hemagglutinin (B/Brisbane/60/2008) (Influenza B (B/Brisbane/60/2008))
[17] = molecular target: Pertuzumab kappa light chain S176K_T178R; test: LCCA, SPR
[18] = molecular target: Pertuzumab kappa light chain S176K_T178K; test: LCCA, SPR
[19] = molecular target: Pertuzumab kappa light chain S131R_V133T_L135K_T178S; test: LCCA, SPR
[20] = molecular target: Pertuzumab kappa light chain V133G_S176D_T180E; test: LCCA, SPR
[21] = molecular target: Pertuzumab kappa light chain V133G_S176D_T178E; test: LCCA, SPR
[22] = molecular target: Pertuzumab kappa light chain V133G_L135W_S176D_T180E; test: LCCA, SPR tag read-out
[23] = molecular target: Pertuzumab kappa light chain V133G_S176D_T180E; test: LCCA, SPR; remark: listed apart in the source
[24] = molecular target: Pertuzumab kappa light chain V133G_S176D_T178E; test: LCCA, SPR; remark: listed apart in the source
[25] = molecular target: Pertuzumab kappa light chain V133G_L135W_S176D_T180E; test: LCCA, SPR tag read-out; remark: listed apart in the source
[26] = molecular target: Pertuzumab kappa light chain Q124K_V133A_T178R; test: LCCA, SPR
[27] = molecular target: CAT-2200 lambda light chain K129T_V133D; test: LCCA, SPR
[28] = molecular target: CAT-2200 lambda light chain E124Q_T131K_V133S; test: LCCA, SPR tag read-out
[29] = molecular target: Pertuzumab kappa light chain Q124E_V133D_L135W; test: LCCA, SPR tag read-out
[30] = molecular target: Pertuzumab kappa light chain V133D; test: LCCA, SPR
[31] = molecular target: Pertuzumab kappa light chain V133D_Q160E; test: LCCA, SPR
[32] = molecular target: Pertuzumab kappa light chain Q124E_V133D; test: LCCA, SPR
[33] = molecular target: Pertuzumab kappa light chain Q124E_V133D; test: LCCA, SPR; remark: listed apart in the source
[34] = molecular target: Pertuzumab kappa light chain S131K_T178S; test: LCCA, SPR
[35] = molecular target: Pertuzumab kappa light chain S131K_S176A_T178S; test: LCCA, SPR
[36] = molecular target: Pertuzumab kappa light chain S131K_T178S; test: LCCA, SPR; remark: listed apart in the source
[37] = molecular target: Pertuzumab kappa light chain S131K_S176A_T178S; test: LCCA, SPR; remark: listed apart in the source
[38] = molecular target: Pertuzumab kappa light chain L135A (L2), N-terminal HA tag; test: LCCA, SPR of light chain tags
[39] = molecular target: CAT-2200 lambda light chain T116F_S176F (L1), N-terminal FLAG tag; test: LCCA, SPR of light chain tags
[40] = molecular target: Pertuzumab kappa light chain, wild type (L2), N-terminal HA tag; test: LCCA, SPR of light chain tags
[41] = molecular target: Pertuzumab kappa light chain T178F (L2), N-terminal HA tag; test: LCCA, SPR of light chain tags
[42] = molecular target: Pertuzumab kappa light chain L135A_T178F (L2), N-terminal HA tag; test: LCCA, SPR of light chain tags
[43] = molecular target: Pertuzumab kappa light chain L135A (L2), N-terminal HA tag; test: LCCA, SPR of light chain tags; remark: listed apart in the source
[44] = molecular target: Pertuzumab kappa light chain, wild type (L2), N-terminal HA tag; test: LCCA, SPR of light chain tags; remark: listed apart in the source
[45] = molecular target: Pertuzumab light chain (kappa) Q124E_V133D, HA-tagged; test: LCCA
[46] = molecular target: Pertuzumab light chain (kappa) Q124E_V133D, HA-tagged; test: LCCA; remark: listed apart in the source
[47] = molecular target: CAT-2200 light chain (lambda) E124Q_T131R, FLAG-tagged; test: LCCA
[48] = molecular target: CAT-2200 light chain (lambda) E124Q_T131K, FLAG-tagged; test: LCCA
[49] = molecular target: SGN-CD19a kappa light chain L2 of design 2830 (T178E_T180E); test: SMCA: H1, L1, H2, L2 co-expressed in CHO-3E7
[50] = molecular target: SGN-CD19a kappa light chain L2, design 3122 (S176K_T178K); test: SMCA: H1,L1,H2,L2 co-expressed, protein A, LC-MS
[51] = molecular target: SGN-CD19a kappa light chain L2, design 3122 (S176K_T178K); test: SMCA: H1,L1,H2,L2 co-expressed, protein A, LC-MS; remark: listed apart in the source
[52] = molecular target: SGN-CD19a kappa light chain L2, design 3878 (Q124R_Q160K_T178R); test: SMCA: H1,L1,H2,L2 co-expressed, protein A, LC-MS
[53] = molecular target: SGN-CD19a kappa light chain L2, design 3878 (Q124R_Q160K_T178R); test: SMCA: H1,L1,H2,L2 co-expressed, protein A, LC-MS; remark: listed apart in the source

Substance: CAT-2200 Fab heavy chain L143D_K145T_Q179E
- H1L1:H1L2 normalized median scalar value ln(r1/f1) [1]: 0.41
- H1L1:H1L2 normalized median scalar value ln(r1/f1) [2]: 0.58

Substance: CR8071 heavy chain H1, design 2816 (Q179K)
- Change in % H1L1 Pairing with respect to wild type [13]: 17%
- % H1L1 Pairing [14]: 99.3%

Substance: CR8071 heavy chain H1, design 2827 (S186R)
- Change in % H1L1 Pairing with respect to wild type [13]: 15.9%
- % H1L1 Pairing [14]: 98.2%

Substance: CR8071 heavy chain H1, design 3878 (Q179K)
- % H1L1 Pairing [15]: 99.3%
- Change in % H1L1 Pairing with respect to wild type [15]: 17%

Substance: CR8071 wild type one-armed antibody (OAA), FLAG-tagged light chain
- Kd [16]: 0.332 nM

Substance: CR8071 wild type one-armed antibody (OAA), no tags
- Kd [16]: 0.385 nM and 0.379 nM

Substance: Pertuzumab Fab heavy chain K145T_V177D_S188D
- H2L2:H2L1 normalized median ratio [8]: 16%
- H2L2:H2L1 normalized median scalar value ln(r1/f1) [17]: 1.5
- H2L2:H2L1 normalized median ratio [18]: 84%
- H2L2:H2L1 normalized median scalar value ln(r1/f1) [18]: 1.68

Substance: Pertuzumab Fab heavy chain L124W_L143E_K145T_Q179E
- H2L2:H2L1 normalized median ratio [26]: 92%
- H2L2:H2L1 normalized median scalar value ln(r1/f1) [26]: 2.51
- H2L2:H2L1 normalized median ratio [27]: 8%

Substance: Pertuzumab Fab heavy chain L143I_S186K
- H2L2:H2L1 normalized median ratio [28]: 16%
- H2L2:H2L1 normalized median ratio [1]: 28%
- H2L2:H2L1 median scalar value [29]: 1.69 ln(ratio)
- H2L2:H2L1 normalized median ratio [29]: 84%
- H2L2:H2L1 normalized median ratio [30]: 72%
- H2L2:H2L1 normalized median scalar value ln(r1/f1) [30]: 0.92
- H2L2:H2L1 normalized median scalar value ln(r1/f1) [31]: 1.5

Substance: Pertuzumab Fab heavy chain L143K
- H2L2:H2L1 normalized median ratio [32]: 92%
- H2L2:H2L1 normalized median scalar value ln(r1/f1) [32]: 2.48
- H2L2:H2L1 normalized median ratio [6]: 8%
- H2L2:H2L1 normalized median ratio [7]: 9%
- H2L2:H2L1 normalized median ratio [33]: 91%
- H2L2:H2L1 normalized median scalar value ln(r1/f1) [33]: 2.3

Substance: Pertuzumab Fab heavy chain V190F (H2), ABD2-His6 tagged
- H2L2:H2L1 normalized median ratio [38]: 44%
- H2L2:H2L1 normalized median scalar value ln(r1/f1) [38]: -0.26
- H2L2:H2L1 normalized median ratio [39]: 29%
- H2L2:H2L1 normalized median ratio [40]: 62%
- H2L2:H2L1 normalized median scalar value ln(r1/f1) [40]: 0.47
- H2L2:H2L1 normalized median ratio [41]: 71%
- H2L2:H2L1 normalized median scalar value ln(r1/f1) [41]: 0.9
- H2L2:H2L1 normalized median ratio [42]: 60%
- H2L2:H2L1 normalized median scalar value ln(r1/f1) [42]: 0.41
- H2L2:H2L1 normalized median ratio [43]: 42%
- H2L2:H2L1 normalized median scalar value ln(r1/f1) [43]: -0.34
- H2L2:H2L1 normalized median ratio [44]: 65%
- H2L2:H2L1 normalized median scalar value ln(r1/f1) [44]: 0.6

Substance: Pertuzumab heavy chain Fab construct L143K
- H2L2:H2L1 normalized median ratio, H2L2 share [45]: 91%
- H2L2:H2L1 normalized median scalar value ln(r1/f1) [45]: 2.3
- H2L2:H2L1 normalized median ratio, H2L2 share [46]: 92%
- H2L2:H2L1 normalized median scalar value ln(r1/f1) [46]: 2.48
- H2L2:H2L1 normalized median ratio (H2L1 share) [47]: 9%
- H2L2:H2L1 normalized median ratio (H2L1 share) [48]: 8%

Substance: Pertuzumab heavy chain Fab construct L143R
- H2L2:H2L1 normalized median ratio, H2L2 share [45]: 96%
- H2L2:H2L1 normalized median scalar value ln(r1/f1) [45]: 3.06
- H2L2:H2L1 normalized median ratio (H2L1 share) [47]: 4%

Substance: SGN-CD19a heavy chain H2, design 3122 (K145T_V177D_S188D)
- % H2L2 Pairing [50]: 89.7%
- Change in % H2L2 Pairing with respect to wild type [50]: 52.1%
- % H2L2 Pairing [51]: 99.8%
- Change in % H2L2 Pairing with respect to wild type [51]: 39.9%

Results, then the substance that gave them:

- H1L1:H1L2 normalized median scalar value ln(r1/f1) [3]: 1.65
- H1L1:H1L2 normalized median scalar value ln(r1/f1) [4]: 3.04
- H1L1:H1L2 normalized median scalar value ln(r1/f1) [5]: 2.87
- H1L1:H1L2 normalized median scalar value ln(r1/f1) [6]: -0.04
- H1L1:H1L2 normalized median scalar value ln(r1/f1) [7]: 0.28
Substance: CAT-2200 Fab heavy chain L143E_K145T_Q179E

- H1L1:H1L2 normalized median scalar value ln(r1/f1) [8]: 0.91
- H1L1:H1L2 normalized median scalar value ln(r1/f1) [9]: 0.54
- H1L1:H1L2 normalized median scalar value ln(r1/f1) [10]: -0.34
- H1L1:H1L2 normalized median scalar value ln(r1/f1) [11]: 1.84
Substance: CAT-2200 Fab heavy chain S186K_S188T

- % H1L1 Pairing [12]: 28%
- Change in % H1L1 Pairing with respect to wild type [12]: -20.4%
Substance: CR8071 heavy chain H1 of design 2830 (L143E_K145T_Q179E), full-length with heterodimeric IgG1 Fc

- H2L2:H2L1 normalized median scalar value ln(r1/f1) [19]: 0.62
Substance: Pertuzumab Fab heavy chain L124E_L143E_K145T

- H2L2:H2L1 normalized median ratio [5]: 33%
- H2L2:H2L1 normalized median ratio [6]: 28%
- H2L2:H2L1 normalized median ratio [20]: 72%
- H2L2:H2L1 normalized median scalar value ln(r1/f1) [20]: 0.95
- H2L2:H2L1 normalized median ratio [7]: 27%
- H2L2:H2L1 normalized median scalar value ln(r1/f1) [21]: 0.77
- H2L2:H2L1 median scalar value [22]: -0.52 ln(ratio)
- H2L2:H2L1 normalized median ratio [23]: 73%
- H2L2:H2L1 normalized median scalar value ln(r1/f1) [23]: 0.97
- H2L2:H2L1 normalized median scalar value ln(r1/f1) [24]: 0.69
- H2L2:H2L1 median scalar value [25]: -0.41 ln(ratio)
Substance: Pertuzumab Fab heavy chain L124R_Q179K

- H2L2:H2L1 normalized median scalar value ln(r1/f1) [34]: 0.84
- H2L2:H2L1 normalized median scalar value ln(r1/f1) [35]: 1.51
- H2L2:H2L1 normalized median ratio [9]: 46%
- H2L2:H2L1 normalized median scalar value ln(r1/f1) [36]: -0.25
- H2L2:H2L1 normalized median ratio [37]: 54%
- H2L2:H2L1 normalized median scalar value ln(r1/f1) [37]: 0.15
Substance: Pertuzumab Fab heavy chain L143T_S188D

- % H2L2 Pairing [49]: 99.6%
- Change in % H2L2 Pairing with respect to wild type [49]: 20%
Substance: SGN-CD19a heavy chain H2 of design 2830 (S186R), full-length with heterodimeric IgG1 Fc

- % H2L2 Pairing [52]: 67.4%
- Change in % H2L2 Pairing with respect to wild type [52]: 7.5%
- % H2L2 Pairing [53]: 28.7%
- Change in % H2L2 Pairing with respect to wild type [53]: -8.9%
Substance: SGN-CD19a heavy chain H2, design 3878 (L143E_K145T_S188L)
